Patent publication US8785135B2, “Mutant G-protein coupled receptors and methods for selecting them” (Heptares Therapeutics Limited, priority 2007, dated 2014)
Numbering of substitutions follows the chain as printed. Numbers in names are those of the source.

What was measured:
[1] = Thermostability assay of βAR34-424 and mutants (heat detergent-solubilised receptor 30 min, then [3H]-DHA binding); settings: turkey βAR expressed in E. coli, DDM-solubilised, heated 30 min without ligand, [3H]-DHA binding; mean ± S.E. from duplicates
Procedure: Binding assays were performed using [^3H]-dihydroalprenolol (DHA) as radioligand as described under “Methods”. Samples were heated for 30 minutes at different temperatures before the assay. […] Data points are from duplicates of one single experiment. This experiment has been repeated several times with similar results.
Expression of βAR and the mutants was performed in X10 cells (Stratagene). Cultures of 50 ml of 2×TY medium containing ampicillin (100 μg/ml) were grown at 37° C. with shaking until OD600=3 and then induced with 0.4 mM IPTG. Induced cultures were incubated at 25° C. for 4 h and then cells were harvested by centrifugation at 13,000×g for 1 min (aliquots of 2 ml) and stored at ±20° C. For the assays, cells were broken by freeze-thaw (five cycles), resuspended in 500 μl of buffer [20 mM Tris pH 8, 0.4 M NaCl, 1 mM EDTA and protease inhibitors (Complete™, Roche)]. After an incubation for 1 h at 4° C. with 100 μg/ml lysozyme and DNase I (Sigma), samples were solubilized with 2% DDM on ice for 30 minutes. Insoluble material was removed by centrifugation (15,000×g, 2 min, 4° C.) and the supernatant was used directly in radioligand binding assays.
Single point binding assays contained 20 mM Tris pH 8, 0.4 M NaCl, 1 mM EDTA, 0.1% DDM (or corresponding detergent) with 50 nM [^3H]-DHA and 20-100 μg membrane protein in a final volume of 120 μl; equilibration was for 1 h at 4° C. Thermostability was assessed by incubating the binding assay mix, with or without [^3H]-DHA at the specified temperature for 30 minutes; reactions were placed on ice and [^3H]-DHA added as necessary and equilibrated for a further hour. […] Radioactivity was counted on a Beckman LS6000 liquid scintillation counter and data were analyzed by nonlinear regression using Prism software (GraphPad).

[2] = Thermostability of A2aR and mutants (ligand binding after or during heating); assay type: physicochemical; settings: for Tm +agonist / Tm +antagonist / Tm −agonist / Tm −antagonist: 1% DDM (no glycerol); for Tm +agonist: agonist-occupied state; for Tm +antagonist: antagonist-occupied state; for Tm −agonist / Tm −antagonist: apo-state; for Tm −agonist: agonist binding; for Tm −antagonist: antagonist binding; for Tm: ZM241385 bound; for thermostability assayed with 3H-ZM241385 (antagonist) / thermostability measured with 3H-NECA (agonist): Ligand(−) format, binding after the heating step
From the text: FIG. 12 Flow chart showing the two different assay formats of ligand (+) and ligand (−) used to determine receptor thermostability.
• 1. 315 site-directed mutants made between residues 2-316 of A2aR. • 2. All of these mutants have been assayed for thermostability using an assay measuring agonist and antagonist binding after the heating step (Ligand(−) format as described in FIG. 12). • a. […] Mutations have been combined to generate mutants in a putative antagonist conformation. Wildtype A2aR has a Tm of 31° C. with ZM241385 bound. • a. Rant17 A54L+K122A+L235A Tm 48° C. (ZM241385 bound) • b. Rant19 A54L, T88A, V239A+A204L Tm 47° C. (ZM241385 bound) • c. Rant21 A54L, T88A, V239A+K122A Tm 49° C. (ZM241385 bound) • 4. Mutations from the agonist screen have been combined, but have led to only a very low level of improvement in Tm of +2° C.

[3] = Stability of wild-type and mutant A2aR in different detergents; assay type: physicochemical; parameters: key: It was not possible to determine the Tm for some receptor-detergent combinations, because the receptor was too unstable (†)

m6-4: βAR34-424 mutant R68S, Y227A, A234L, A282L
Tm [1]: 41.6 ± 0.1 °C

m6-9: βAR34-424 mutant R68S, Y227A, A234L, A282L, A334L
Tm [1]: 43.7 ± 0.4 °C

m20: βAR34-424 mutant R68S, M90V, F327A, A334L
Tm [1]: 48.4 ± 0.7 °C

m6-5: βAR34-424 mutant R68S, A234L, A282L, A334L
Tm [1]: 41.9 ± 0.5 °C

m7-1: βAR34-424 mutant M90V, A282L, F338M
Tm [1]: 43.0 ± 0.8 °C

Wildtype A2aR: human adenosine A2a receptor, parent
Tm +agonist [2]: 29 °C
Tm +antagonist [2]: 32 °C
Tm −agonist [2]: 21 °C
Tm −antagonist [2]: 31 °C
Tm [2]: 31 °C
Tm Agonist-binding ([3]; 0.003% LDAO): 28 °C
Tm Antagonist-binding ([3]; 0.003% LDAO): 32 °C
Tm Agonist-binding ([3]; 0.006% FC12): 37 °C
Tm Antagonist-binding ([3]; 0.006% FC12): 43 °C
Tm Agonist-binding ([3]; 0.01% DDM): 27 °C
Tm Antagonist-binding ([3]; 0.01% DDM): 25 °C
Tm Agonist-binding ([3]; 0.1% DM): 23 °C
Tm Antagonist-binding ([3]; 0.1% DM): 10 °C
Tm Agonist-binding ([3]; 0.3% NG): †
Tm Antagonist-binding ([3]; 0.3% NG): †
Tm Agonist-binding ([3]; 0.3% NM): 22 °C
Tm Antagonist-binding ([3]; 0.3% NM): <4 °C
Tm Agonist-binding ([3]; 0.6% OG): <9 °C
Tm Antagonist-binding ([3]; 0.6% OG): †

m7-7: βAR34-424 mutant M90V, Y227A, F338M
Tm [1]: 45.2 ± 2.0 °C

m6-10: βAR34-424 mutant R68S, Y227A, A282L, A334L
Tm [1]: 47.4 ± 1.1 °C

B1: A54L: A2aR point mutant (protein, UniProt P29274 1-412, looked up, variant A54L)
Adenosine receptor A2a: MPIMGSSVYITVELAIAVLAILGNVLVCWAVWLNSNLQNVTNYFVVSLAAADILVGVLAIPFAITISTGFCAACHGCLFIACFVLVLTQSSIFSLLAIAIDRYIAIRIPLRYNGLVTGTRAKGIIAICWVLSFAIGLTPMLGWNNCGQPKEGKNHSQGCGEGQVACLFEDVVPMNYMVYFNFFACVLVPLLLMLGVYLRIFLAARRQLKQMESQPLPGERARSTLQKEVHAAKSLAIIVGLFALCWLPLHIINCFTFFCPDCSHAPLWLMYLAIVLSHTNSVVNPFIYAYRIREFRQTFRKIIRSHVLRQQEPFKAAGTSARVLAAHGSDGEQVSLRLNGHPPGVWANGSAPHPERRPNGYALGLVSGGSAQESQGNTGLPDVELLSHELKGVCPEPPGLDDPLAQDGAGVS
thermostability assayed with 3H-ZM241385 (antagonist) [2]: improved thermostability

B2: V57A: A2aR point mutant (protein, UniProt P29274 1-412, looked up, variant V57A)
Adenosine receptor A2a: B1 Adenosine receptor A2a with L54A, V57A
thermostability assayed with 3H-ZM241385 (antagonist) [2]: improved thermostability

B3: L167A: A2aR point mutant (protein, UniProt P29274 1-412, looked up, variant L167A)
Adenosine receptor A2a: B1 Adenosine receptor A2a with L54A, L167A
thermostability measured with 3H-NECA (agonist) [2]: improved thermostability

B4: T88A: A2aR point mutant (protein, UniProt P29274 1-412, looked up, variant T88A)
Adenosine receptor A2a: B1 Adenosine receptor A2a with L54A, T88A
thermostability assayed with 3H-ZM241385 (antagonist) [2]: improved thermostability

B5: Rant 5: A2aR mutant A54L/T88A/V239A (protein, UniProt P29274 1-412, looked up, variant A54L T88A V239A)
Adenosine receptor A2a: B1 Adenosine receptor A2a with T88A, V239A
Tm +antagonist [2]: 46 °C
Tm −antagonist [2]: 42 °C

B6: G114 A: A2aR point mutant (protein, UniProt P29274 1-412, looked up, variant G114A)
Adenosine receptor A2a: B1 Adenosine receptor A2a with L54A, G114A
thermostability assayed with 3H-ZM241385 (antagonist) [2]: improved thermostability
thermostability measured with 3H-NECA (agonist) [2]: improved thermostability

B7: K122A: A2aR point mutant (protein, UniProt P29274 1-412, looked up, variant K122A)
Adenosine receptor A2a: B1 Adenosine receptor A2a with L54A, K122A
thermostability assayed with 3H-ZM241385 (antagonist) [2]: improved thermostability

B8: G123A: A2aR point mutant (protein, UniProt P29274 1-412, looked up, variant G123A)
Adenosine receptor A2a: B1 Adenosine receptor A2a with L54A, G123A
thermostability assayed with 3H-ZM241385 (antagonist) [2]: improved thermostability

B9: V239A: A2aR point mutant (protein, UniProt P29274 1-412, looked up, variant V239A)
Adenosine receptor A2a: B1 Adenosine receptor A2a with L54A, V239A
thermostability assayed with 3H-ZM241385 (antagonist) [2]: improved thermostability

B10: G152A: A2aR point mutant (protein, UniProt P29274 1-412, looked up, variant G152A)
Adenosine receptor A2a: B1 Adenosine receptor A2a with L54A, G152A
thermostability assayed with 3H-ZM241385 (antagonist) [2]: improved thermostability

B11: A184L: A2aR point mutant (protein, UniProt P29274 1-412, looked up, variant A184L)
Adenosine receptor A2a: B1 Adenosine receptor A2a with L54A, A184L
thermostability measured with 3H-NECA (agonist) [2]: improved thermostability

B12: E151A: A2aR point mutant (protein, UniProt P29274 1-412, looked up, variant E151A)
Adenosine receptor A2a: B1 Adenosine receptor A2a with L54A, E151A
thermostability assayed with 3H-ZM241385 (antagonist) [2]: improved thermostability

B13: A204L: A2aR point mutant (protein, UniProt P29274 1-412, looked up, variant A204L)
Adenosine receptor A2a: B1 Adenosine receptor A2a with L54A, A204L
thermostability assayed with 3H-ZM241385 (antagonist) [2]: improved thermostability

B14: Rag 1: A2aR mutant A184L/R199A/L272A (protein, UniProt P29274 1-412, looked up, variant A184L R199A L272A)
Adenosine receptor A2a: B1 Adenosine receptor A2a with L54A, A184L, R199A, L272A
Tm +agonist [2]: 34 °C
Tm −agonist [2]: 26 °C

B15: G118A: A2aR point mutant (protein, UniProt P29274 1-412, looked up, variant G118A)
Adenosine receptor A2a: B1 Adenosine receptor A2a with L54A, G118A
thermostability assayed with 3H-ZM241385 (antagonist) [2]: improved thermostability
thermostability measured with 3H-NECA (agonist) [2]: improved thermostability

B16: R199A: A2aR point mutant (protein, UniProt P29274 1-412, looked up, variant R199A)
Adenosine receptor A2a: B1 Adenosine receptor A2a with L54A, R199A
thermostability measured with 3H-NECA (agonist) [2]: improved thermostability

B17: A231L: A2aR point mutant (protein, UniProt P29274 1-412, looked up, variant A231L)
Adenosine receptor A2a: B1 Adenosine receptor A2a with L54A, A231L
thermostability assayed with 3H-ZM241385 (antagonist) [2]: improved thermostability

B18: P149A: A2aR point mutant (protein, UniProt P29274 1-412, looked up, variant P149A)
Adenosine receptor A2a: B1 Adenosine receptor A2a with L54A, P149A
thermostability assayed with 3H-ZM241385 (antagonist) [2]: improved thermostability

B19: H75A: A2aR point mutant (protein, UniProt P29274 1-412, looked up, variant H75A)
Adenosine receptor A2a: B1 Adenosine receptor A2a with L54A, H75A
thermostability assayed with 3H-ZM241385 (antagonist) [2]: improved thermostability

B20: L235A: A2aR point mutant (protein, UniProt P29274 1-412, looked up, variant L235A)
Adenosine receptor A2a: B1 Adenosine receptor A2a with L54A, L235A
thermostability assayed with 3H-ZM241385 (antagonist) [2]: improved thermostability

B21: Rant19: A2aR mutant A54L, T88A, V239A+A204L (protein, UniProt P29274 1-412, looked up, variant A54L T88A V239A A204L)
Adenosine receptor A2a: B1 Adenosine receptor A2a with T88A, A204L, V239A
Tm [2]: 47 °C

B22: T119A: A2aR point mutant (protein, UniProt P29274 1-412, looked up, variant T119A)
Adenosine receptor A2a: B1 Adenosine receptor A2a with L54A, T119A
thermostability assayed with 3H-ZM241385 (antagonist) [2]: improved thermostability
